Measured values: patent US20260115302A1 (XILIO DEVELOPMENT, published 2026)

Target: T1, CD25-Fc (UniProt P01589 22-240)
T1 construct: Analyte flowed over the immobilised constructs in SPR (16, 8, 4, 2, 1 nM); also called IL-2Ralpha-Fc; not shown: Fc part of the reagent
T1 sequence (looked up): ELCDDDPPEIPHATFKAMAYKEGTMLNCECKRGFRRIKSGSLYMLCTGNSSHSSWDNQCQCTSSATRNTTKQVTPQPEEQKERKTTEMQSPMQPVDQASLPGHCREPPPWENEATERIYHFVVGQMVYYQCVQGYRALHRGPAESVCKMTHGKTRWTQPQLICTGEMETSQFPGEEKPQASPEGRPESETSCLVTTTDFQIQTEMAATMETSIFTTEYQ
Test: SPR (Reichert 4Channel, 25 C): MMP-activated construct immobilised on the chip by amine coupling, CD25-Fc flowed over as analyte

binding result: no binding
B1: AK168 after protease cleavage (Fc fusion)
chain: LYHPSGPAPTSSSTKKTQLQLEHLLLDLQMILNGINNYKNPKLTAMLTAKFAMPKKATELKHLQCLEEALKPLEEVLNLAQSKNFHLRPRDLISNINVIVLELKGSETTFMCEYADETATIVEFLNRWITFAQSIISTLT
notes: The fragments present on the SPR chip are not described
